Measurements reported in the RNAGym collection of RNA variant scans (doi:10.1073/pnas.2313332121).

B1: TPR t1 (parent)
chain: GACCAAUCUGCCCUCAGAGCUCGAGAACAUCUUCGGAUGCAGAGGAGGCAGGCUUCGGUGGCGCGAUAGCGCCAACGUCCUCAACCUCCAAUGCAUCCCACCACAUGAUGAUGCCUGAAGAGCCUUGGUUUUUUG

Variants of: B1
Assay: polymerase ribozyme fitness, log enrichment relative to wild type (log ratio); higher = more active; in vitro selection for triplet polymerase activity
How it was run: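 Mutant libraries for each subunit of a heterodimeric triplet polymerase ribozyme were made by PCR and then transcribed. Each library underwent one round of in vitro selection in triplicate: annealing with a biotinylated primer, the partner subunit and triplets, frozen incubation at −7 °C, gel excision of extended constructs, streptavidin-bead capture and RT-PCR. Input and output libraries were Illumina-sequenced, and only genotypes with ≥10 input reads and ≥1 read per output were kept. Fitness is the logarithm, base 2, of genotype enrichment over wild-type enrichment, computed from inverse-variance-weighted replicate averages.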

Question: Which “polymerase ribozyme fitness (log ratio)” value does the source give for A83C U96G U106A A121C here?
Answer: Its value is 1.64.

Question: With C12U A24G G36A G63A as the variant, how does the “polymerase ribozyme fitness (log ratio)” value read?
Answer: The value was -2.54.

Question: Which “polymerase ribozyme fitness (log ratio)” value does the source give for C70U U78A here?
Answer: The value was -1.17.

Question: For C12A C15U C73A C79U C86A C115U, which “polymerase ribozyme fitness (log ratio)” value is on record?
Answer: Its value is -3.16.

Question: With A18U C62U C86A C114U as the variant, how does the “polymerase ribozyme fitness (log ratio)” value read?
Answer: Its value is -5.98.

Question: For U7A G60A C64U C124A U133C, which “polymerase ribozyme fitness (log ratio)” value is on record?
Answer: The value was -1.69.

Question: For A43U G61A C73A C88A G93A A121U, which “polymerase ribozyme fitness (log ratio)” value is on record?
Answer: The value was -2.52.

Question: Which “polymerase ribozyme fitness (log ratio)” value does the source give for C56A C123U here?
Answer: Its value is 1.2.

Question: Which “polymerase ribozyme fitness (log ratio)” value does the source give for C3G G61C here?
Answer: The value was -3.19.

Question: For C72U C88U U131C U133A, which “polymerase ribozyme fitness (log ratio)” value is on record?
Answer: The value was -0.924.

Question: For A6G C82G U87A A90U, which “polymerase ribozyme fitness (log ratio)” value is on record?
Answer: Its value is -2.92.

Question: Which “polymerase ribozyme fitness (log ratio)” value does the source give for C4G U59A G71U C82A here?
Answer: The value was -5.53.

Question: With C4G A27U G36C C49G C79U C123G as the variant, how does the “polymerase ribozyme fitness (log ratio)” value read?
Answer: Its value is -5.37.

Question: For A6U G42U U87A C94A C123G, which “polymerase ribozyme fitness (log ratio)” value is on record?
Answer: Its value is -1.12.

Question: For C86U A95C, which “polymerase ribozyme fitness (log ratio)” value is on record?
Answer: The value was -1.49.

Question: With C64U A91C G93A G120A U133G as the variant, how does the “polymerase ribozyme fitness (log ratio)” value read?
Answer: The value was -1.92.

Question: For A5C C13U A46C C64U U78A C79G G113C, which “polymerase ribozyme fitness (log ratio)” value is on record?
Answer: Its value is -5.7.

Question: For A27U C79G, which “polymerase ribozyme fitness (log ratio)” value is on record?
Answer: Its value is -4.46.

Question: With C15U A41G G52U C62U A119U as the variant, how does the “polymerase ribozyme fitness (log ratio)” value read?
Answer: Its value is -2.59.

Question: With C49A G58C C88G A91U C104G A119G U133G as the variant, how does the “polymerase ribozyme fitness (log ratio)” value read?
Answer: Its value is -7.73.

Question: For G48U C53G C86U C98A C123G C124A, which “polymerase ribozyme fitness (log ratio)” value is on record?
Answer: Its value is -5.23.

Question: Which “polymerase ribozyme fitness (log ratio)” value does the source give for U9C G60U C82U U96C here?
Answer: Its value is 0.305.

Question: With C56A C98U as the variant, how does the “polymerase ribozyme fitness (log ratio)” value read?
Answer: The value was -1.91.

Question: With A43C G93C U130A as the variant, how does the “polymerase ribozyme fitness (log ratio)” value read?
Answer: Its value is -3.38.

Question: For U9C G61A, which “polymerase ribozyme fitness (log ratio)” value is on record?
Answer: Its value is 0.487.

Question: With C56A G128U U129G as the variant, how does the “polymerase ribozyme fitness (log ratio)” value read?
Answer: Its value is -0.991.

Question: With U14A G61A A90C A91C as the variant, how does the “polymerase ribozyme fitness (log ratio)” value read?
Answer: Its value is -4.3.

Question: With A29U C62A U112C G127C as the variant, how does the “polymerase ribozyme fitness (log ratio)” value read?
Answer: Its value is -3.28.

Question: Which “polymerase ribozyme fitness (log ratio)” value does the source give for A43G C72U here?
Answer: The value was -0.99.

Question: Which “polymerase ribozyme fitness (log ratio)” value does the source give for U7C A90C G93A G117U U132A here?
Answer: Its value is -4.79.

Question: With A75U G110U A121U as the variant, how does the “polymerase ribozyme fitness (log ratio)” value read?
Answer: The value was -1.08.

Question: For C40U U112A U116C, which “polymerase ribozyme fitness (log ratio)” value is on record?
Answer: The value was -1.95.

Question: For A5G A24G A29C G36C G61A C70U G113A, which “polymerase ribozyme fitness (log ratio)” value is on record?
Answer: Its value is -5.67.

Question: With C13G C40A G63A as the variant, how does the “polymerase ribozyme fitness (log ratio)” value read?
Answer: Its value is -4.13.

Question: Which “polymerase ribozyme fitness (log ratio)” value does the source give for C40A C56U A119U G122A here?
Answer: The value was -1.84.

Question: With G113A C123G as the variant, how does the “polymerase ribozyme fitness (log ratio)” value read?
Answer: The value was -0.469.

Question: Which “polymerase ribozyme fitness (log ratio)” value does the source give for C12A G42C G69U C80U here?
Answer: The value was -1.06.

Question: For A18G G19A A43C C56U G110A, which “polymerase ribozyme fitness (log ratio)” value is on record?
Answer: The value was -2.58.

Question: For A18U C70U A84G, which “polymerase ribozyme fitness (log ratio)” value is on record?
Answer: The value was -6.3.

Question: With C34A A41G A74U C88U C101U as the variant, how does the “polymerase ribozyme fitness (log ratio)” value read?
Answer: The value was -4.89.

Question: For A26U A50U C124G, which “polymerase ribozyme fitness (log ratio)” value is on record?
Answer: The value was -2.5.

Question: For A74G C102U A119U, which “polymerase ribozyme fitness (log ratio)” value is on record?
Answer: Its value is -0.954.

Question: With A6U C34G C123U as the variant, how does the “polymerase ribozyme fitness (log ratio)” value read?
Answer: Its value is -5.18.

Question: Which “polymerase ribozyme fitness (log ratio)” value does the source give for C15U A41U A90C C115G here?
Answer: The value was -4.18.

Question: For G48U U54C C73G C82G G113A G122A U126G, which “polymerase ribozyme fitness (log ratio)” value is on record?
Answer: Its value is -6.92.

Question: Which “polymerase ribozyme fitness (log ratio)” value does the source give for G61C U87A G110C here?
Answer: Its value is -5.84.

Question: For G36U A83U, which “polymerase ribozyme fitness (log ratio)” value is on record?
Answer: The value was -1.49.

Question: With A16C C22U as the variant, how does the “polymerase ribozyme fitness (log ratio)” value read?
Answer: The value was -5.8.

Question: With C8U C34A G44U G61A U130G as the variant, how does the “polymerase ribozyme fitness (log ratio)” value read?
Answer: Its value is -4.33.

Question: With G44C A46U G58A G117A U130G as the variant, how does the “polymerase ribozyme fitness (log ratio)” value read?
Answer: Its value is -3.81.

Question: For C56A C70A G77C, which “polymerase ribozyme fitness (log ratio)” value is on record?
Answer: Its value is -3.23.

Question: For G10A U116C, which “polymerase ribozyme fitness (log ratio)” value is on record?
Answer: The value was -0.237.

Question: For A6U C53A C97U G113A, which “polymerase ribozyme fitness (log ratio)” value is on record?
Answer: The value was -1.91.

Question: Which “polymerase ribozyme fitness (log ratio)” value does the source give for C72G C101A U106A A119U C123U here?
Answer: The value was -4.15.

Question: Which “polymerase ribozyme fitness (log ratio)” value does the source give for U21A U54C G61A A111G C123U here?
Answer: Its value is -5.38.

Question: Which “polymerase ribozyme fitness (log ratio)” value does the source give for C20G G61A A90C A95U here?
Answer: Its value is -3.88.

Question: For U38A G45A U129C, which “polymerase ribozyme fitness (log ratio)” value is on record?
Answer: The value was -2.96.

Question: For G52C G69C G117C, which “polymerase ribozyme fitness (log ratio)” value is on record?
Answer: Its value is -6.05.

Question: For G47A C101A, which “polymerase ribozyme fitness (log ratio)” value is on record?
Answer: The value was -1.93.

Question: Which “polymerase ribozyme fitness (log ratio)” value does the source give for G122A C124G here?
Answer: The value was 1.86.

Question: For G93C G127C, which “polymerase ribozyme fitness (log ratio)” value is on record?
Answer: Its value is -1.82.

Question: With C79G U131C as the variant, how does the “polymerase ribozyme fitness (log ratio)” value read?
Answer: Its value is -1.28.

Question: With C49G G52A C70A U96C as the variant, how does the “polymerase ribozyme fitness (log ratio)” value read?
Answer: Its value is -4.29.

Question: For C70G C124A, which “polymerase ribozyme fitness (log ratio)” value is on record?
Answer: Its value is -1.21.

Question: With C3U C12U G63A C89G as the variant, how does the “polymerase ribozyme fitness (log ratio)” value read?
Answer: The value was -3.24.

Question: Which “polymerase ribozyme fitness (log ratio)” value does the source give for A50U G69C here?
Answer: The value was -1.7.

Question: For A46G C56A, which “polymerase ribozyme fitness (log ratio)” value is on record?
Answer: Its value is -0.525.

Question: With C20G C85G as the variant, how does the “polymerase ribozyme fitness (log ratio)” value read?
Answer: The value was -3.76.

Question: For U9C A37U G110U, which “polymerase ribozyme fitness (log ratio)” value is on record?
Answer: Its value is -0.951.

Question: With G57C C82U as the variant, how does the “polymerase ribozyme fitness (log ratio)” value read?
Answer: The value was 0.151.

Question: With C8G C34G C89A U96G A100U as the variant, how does the “polymerase ribozyme fitness (log ratio)” value read?
Answer: Its value is -7.34.

Question: Which “polymerase ribozyme fitness (log ratio)” value does the source give for A6U C12G G45C here?
Answer: The value was -1.57.

Question: For C20A A46G C49A G60U U81G A91C, which “polymerase ribozyme fitness (log ratio)” value is on record?
Answer: Its value is -5.46.

Question: With G45A U96G as the variant, how does the “polymerase ribozyme fitness (log ratio)” value read?
Answer: Its value is -1.51.

Question: With C72U C73A U81A C85U G122A as the variant, how does the “polymerase ribozyme fitness (log ratio)” value read?
Answer: Its value is -4.88.

Question: For U9A C98A C104U, which “polymerase ribozyme fitness (log ratio)” value is on record?
Answer: Its value is -3.44.

Question: Which “polymerase ribozyme fitness (log ratio)” value does the source give for U14G U55C C70A G135U here?
Answer: Its value is -4.4.

Question: For G113U G117A, which “polymerase ribozyme fitness (log ratio)” value is on record?
Answer: Its value is -5.13.

Question: For A41G U55A C56U C72G A118U, which “polymerase ribozyme fitness (log ratio)” value is on record?
Answer: The value was -0.698.

Question: With A43U G44C as the variant, how does the “polymerase ribozyme fitness (log ratio)” value read?
Answer: Its value is -1.05.

Question: Which “polymerase ribozyme fitness (log ratio)” value does the source give for C53G G128C here?
Answer: Its value is -2.03.

Question: With C101A G107A as the variant, how does the “polymerase ribozyme fitness (log ratio)” value read?
Answer: Its value is -5.93.

Question: For G60U G61A, which “polymerase ribozyme fitness (log ratio)” value is on record?
Answer: The value was -0.341.
